Laboratory results as given in PMC11561172 (Nature Communications, 2024).

Biological target: the molecule itself
Assay: cryo-EM structure

B1: RNA polymerase α subunit (natural protein, Spinacia oleracea (spinach), UniProt P06505 1-335, looked up)
chain: MVREKIRVSTQTLQWKCVESRTDSKCLHYGRFILSPLMKGQADTIGIAMRRALLGEIEGTCITRAKSEKIPHEYSTILGIQESVHEILMNLKEIVLRSNLYGTCEASICVRGPRGVTAQDIILPPYVEIVDNTQHIASLTEPIDLCIGLQLERNRGYHIKAPNNFQDGSFPIDALFMPVRNVNHSIHSYGNGNEKQEILFLEIWTNGSLTPKEALYEASRNLIDLLIPFLHAEENVNLEDNQHKVSLPLFTFHNRLAEIRKNKKKIALKFIFIDQLELPPRIYNCLKKSNIHTLLDLLNNSQEDLIKMKHFRIEDVKQIFGTLEKHFVIDLKNKR
- binding result: binds
